Test results reported in US20220185898A1 (Alector, published 2022).
Substitutions are numbered along the chain they refer to. Blank lines part the entries; values can stand above or below the binder they belong to.

Experiments:
[1] = molecular target: T1, human Sortilin expressed on 293 / HEK293T cells (human, UniProt Q99523 78-830); assay: FACS, 293 cells;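 further: antibodies at 10 µg/ml bound to cells for 1 h on ice, detected with PE-labelled anti-human secondary antibody by flow cytometry, reported as mean fluorescence intensity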
T1 construct: full-length recombinant human Sortilin; also called hSort; SORT1
Experimental: (§1) Cells were harvested, plated at 10⁵/ml in a 96 well plate, washed, and incubated in 100 μl PBS containing 10 μg/ml Mab and 2% FBS for 1 hour in ice. Cells were then washed twice and incubated in 100 μl PBS+2% FBS containing 5 μg/ml PE-conjugated anti-human secondary antibody for 30 minutes in ice. Cells were washed twice in cold PBS and data was acquired on a BD FACS Canto. Data analysis and calculation of MFI values was performed with FlowJo (TreeStar) software version 10.0.7.

[2] = molecular target: T2, mouse Sortilin expressed on 293 / HEK293T cells (mouse, UniProt Q6PHU5 74-825); assay: FACS, 293 cells;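 further: antibodies at 10 µg/ml bound to cells for 1 h on ice, detected with PE-labelled anti-human secondary antibody by flow cytometry, reported as mean fluorescence intensity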
T2 construct: full-length recombinant mouse Sortilin; also called mSort; msSort
Experimental: as §1

[3] = molecular target: T3, human Sortilin Fc fusion protein (human, UniProt Q99523 78-755); assay: ForteBio, avid;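 further: whole IgG captured on AHQ sensors, then contacted with Sortilin Fc fusion antigen at 100 nM, followed by an off-rate phase in buffer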
T3 construct: whole entry named; also called hSort-Fc
Experimental: (§2) The affinity for the Sortilin antibodies was determined by measuring their KD by ForteBio. […] Briefly, ForteBio affinity measurements were performed by loading IgGs on-line onto AHQ sensors. Sensors were equilibrated off-line in assay buffer for 30 min and then monitored on-line for 60 seconds for baseline establishment. For avid binding measurement, sensors with loaded IgGs were exposed to 100 nM antigen (human or mouse Sortilin Fc fusion) for 3, afterwards they were transferred to assay buffer for 3 min for off-rate measurement.
(§3) The binding affinity of each anti-Sortilin antibody was determined by measuring their KD by ForteBio or MSD-SET at room temperature. […] Briefly, ForteBio affinity measurements were performed by loading IgGs on-line onto AHQ sensors. Sensors were equilibrated off-line in assay buffer for 30 min and then monitored on-line for 60 seconds for baseline establishment. Sensors with loaded IgGs were exposed to 100 nM antigen for 5 minutes, then transferred to assay buffer for 5 min for off-rate measurement. Kinetics were analyzed using the 1:1 binding model.

[4] = molecular target: T4, mouse Sortilin Fc fusion protein (mouse; human, UniProt Q6PHU5 74-754); assay: ForteBio, avid;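 further: whole IgG captured on AHQ sensors, then contacted with Sortilin Fc fusion antigen at 100 nM, followed by an off-rate phase in buffer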
T4 construct: whole entry named; also called mSort-Fc
Experimental: as §2, §3

[5] = molecular target: T2, mouse Sortilin expressed on 293 / …; assay: FACS, HEK293T + msSort
Experimental: Antibodies were diluted in FACS buffer (PBS+2% FBS+0.01% NaAzide). After incubation on ice for 1 h, cells were washed three times in FACS buffer and incubated with anti-human PE conjugated secondary antibody (BD Biosciences, 1:100 dilution) for 30 min on ice. Then cells were washed twice in 200 ul FACS buffer, and subsequently analyzed on a FACS Canto or iQE FACS screening instrument (Intellicyt Corp).

MFI [1]: 9480
MFI [2]: 21400
Kd [3]: 2.28 nM
Kd [4]: 1.13 nM
B1: S-55 (antibody, V domains shown)
VH: QVQLQESGPGLVKPSETLSLTCAVSGYSISSGYYWGWIRQPPGKGLEWIGSIYHSGSTYYNPSLKSRVTISVDTSKNQFSLKLSSVTAADTAVYYCARGRPELGWDKYFQHWGQGTLVTVSS
VL: DIQMTQSPSSVSASVGDRVTITCRASQGISRWLAWYQQKPGKAPKLLIYAASSLQSGVPSRFSGSGSGTDFTLTISSLQPEDFATYYCQQANALPTFGGGTKVEIK
notes: IgG

MFI [1]: 8660
MFI [2]: 19400
Kd [3]: 11 nM
Kd [4]: 2.29 nM
B2: S-10 (antibody, V domains shown)
VH: QVQLVQSGAEVKKPGASVKVSCKASGYTFTSYGISWVRQAPGQGLEWMGWISAYNGNTNYAQKLQGRVTMTTDTSTSTAYMELRSLRSDDTAVYYCARDPGGYGPTLYYYYGMDVWGQGTTVTVSS
VL: EIVMTQSPATLSVSPGERATLSCRASQSVSSNLAWYQQKPGQAPRLLIYGASTRATGIPARFSGSGSGTEFTLTISSLQSEDFAVYYCQQYADWPPITFGGGTKVEIK
notes: IgG

MFI [1]: 9680
MFI [2]: 4180
Kd [4]: 19 nM
B3: S-76 (antibody, V domains shown)
VH: QVQLQESGPGLVKPSQTLSLTCTVSGGSISSGGYYWSWIRQHPGKGLEWIGSIYYSGSTYYNPSLKSRVTISVDTSKNQFSLKLSSVTAADTAVYYCARGVGIQQQLVLGFDPWGQGTLVTVSS
VL: DIQMTQSPSSLSASVGDRVTITCRASQSISSFLNWYQQKPGKAPKLLISAASSLQSGVPSRFSGSGSGTDFTLTISSLQPEDFATYYCQQSYREPITFGGGTKVEIK
notes: IgG

MFI [1]: 9380
MFI [2]: 22900
Kd [3]: 1.87 nM
Kd [4]: 2.8 nM
B4: S-21 (antibody, V domains shown)
VH: QVQLVQSGAEVKKPGSSVKVSCKASGGTFSSYAISWVRQAPGQGLEWMGSIIPIFGTANYAQKFQGRVTITADESTSTAYMELSSLRSEDTAVYYCARERRYDGYYYYYGMDVWGQGTTVTVSS
VL: B3 VL with F32Y, S49Y, S91K, Y92A, R93S, E94L, I96F
notes: IgG

MFI [1]: 11700
MFI [2]: 28200
Kd [3]: 0.843 nM
Kd [4]: 0.733 nM
B5: S-19 (antibody, V domains shown)
VH: QVQLVQSGAEVKKPGSSVKVSCKASGGTFSSYAISWVRQAPGQGLEWMGGIIPIFGTASYAQKFQGRVTITADESTSTAYMELSSLRSEDTAVYYCARESRIPGSGYYYYYGMDVWGQGTTVTVSS
VL: B3 VL with F32Y, S49Y, A50S, S91T, Y92D, R93G, E94K, I96P
notes: IgG

Kd [5]: 2.27 nM
B6: S-2-2 (antibody, V domains shown)
VH: QVQLVQSGAEVKKPGASVKVSCKASGYTFVAYYMHWVRQAPGQGLEWMGWINPNSGATRYAQKFQGRVTMTRDTSISTAYMELSRLRSDDTAVYYCARGKRSSGWYEGYGMDVWGQGTTVTVSS
VL: B3 VL with F32Y, S49Y, Y92D, R93V, E94S
notes: IgG

MFI [1]: 8070
MFI [2]: 17900
Kd [4]: 6.9 nM
B7: S-65 (antibody, V domains shown)
VH: QVQLQESGPGLVKPSETLSLTCAVSGYSISSGYYWGWIRQPPGKGLEWIGSIYHSGSTYYNPSLKSRVTISVDTSKNQFSLKLSSVTAADTAVYYCAREGQLPTGTFDYWGQGTLVTVSS
VL: not shown
notes: IgG

MFI [1]: 7770
MFI [2]: 15100
Kd [3]: 2.59 nM
Kd [4]: 0.8 nM
B8: S-58 (antibody, V domains shown)
VH: QVQLQESGPGLVKPSETLSLTCAVSGYSISSGYYWGWIRQPPGKGLEWIGSIYHSGNTYYNPSLKSRVTISVDTSKNQFSLKLSSVTAADTAVYYCARGPPELGKMYFQHWGQGTLVTVSS
VL: EIVLTQSPATLSVSPGERATLSCRASQSVSSNLAWYQQKPGQAPRLLIYGASTRATGIPARFSGSGSGTEFTLTISSLQSEDFAVYYCQQDRKGPLTFGGGTKVEIK
notes: IgG

MFI [1]: 7480
MFI [2]: 21800
Kd [3]: 4.26 nM
Kd [4]: 2.45 nM
B9: S-61 (antibody, V domains shown)
VH: QVQLQESGPGLVKPSETLSLTCAVSGYSISSGYYWGWIRQPPGKGLEWIGSIYHSGSTYYNPSLKSRVTISVDTSKNQFSLKLSSVTAADTAVYYCARGSPRFYYGSGSYLDLFDIWGQGTMVTVSS
VL: B8 VL with L4M, Q90E, D91Y, R92L, K93N, G94Y, L96I
notes: IgG

MFI [1]: 8580
MFI [2]: 1890
Kd [3]: 4.29 nM
Kd [4]: 20.1 nM
B10: S-69 (antibody, V domains shown)
VH: QVQLQESGPGLVKPSQTLSLTCTVSGGSISSGGYYWSWIRQHPGKGLEWIGYIYYSGSTYYNPSLKSRVTISVDTSKNQFSLKLSSVTAADTAVYYCARDRGGTHFGADHYYYGMDVWGQGTMVTVSS
VL: B8 VL with L4M, N32S, D91A, R92A, K93D, G94W, L96I
notes: IgG

MFI [1]: 8140
MFI [2]: 11900
Kd [3]: 4.96 nM
Kd [4]: 1.53 nM
B11: S-48 (antibody, V domains shown)
VH: QVQLVESGGGVVQPGRSLRLSCAASGFTFSSYGMHWVRQAPGKGLEWVAVISYDGSNKYYADSVKGRFTISRDNSKNTLYLQMNSLRAEDTAVYYCARESGDRATLVYYYYYGMDVWGQGTTVTVSS
VL: B8 VL with L4M, G50S, D91Y, R92N, K93S, G94W, L96I
notes: IgG

MFI [1]: 9120
MFI [2]: 15700
Kd [3]: 4.5 nM
Kd [4]: 1.55 nM
B12: S-4 (antibody, V domains shown)
VH: not shown
VL: B8 VL with L4M, D91F, K93V, G94L, L96P
notes: IgG

MFI [1]: 10300
MFI [2]: 22200
Kd [3]: 6.98 nM
Kd [4]: 2.16 nM
B13: S-9 (antibody, V domains shown)
VH: B2 VH
VL: B8 VL with L4M, D91Y, R92N, K93I, G94Y
notes: IgG

Kd [5]: 18.9 nM
B14: S-15-6 (antibody, V domains shown)
VH: QVQLVQSGAEVKKPGASVKVSCKASGYTFTSRYMSWVRQAPGQGLEWMGIINPVGGSTSYAQKFQGRVTMTRDTSTSTVYMELSSLRSEDTAVYYCARDPSGIAAAGPASRYYYGMDVWGQGTTVTVSS
VL: B8 VL with L4M, D91A, K93L, L96W
notes: IgG

MFI [1]: 8560
MFI [2]: 21600
Kd [3]: 0.299 nM
Kd [4]: 1.25 nM
B15: S-28 (antibody, V domains shown)
VH: EVQLVESGGGLVKPGGSLRLSCAASGFTFSSYSMNWVRQAPGKGLEWVSSISSSSNYIYYADSVKGRFTISRDNAKNSLYLQMNSLRAEDTAVYYCARGGLDRWGSFDIWGQGTMVTVSS
VL: not shown
notes: IgG

MFI [1]: 9600
MFI [2]: 21800
Kd [3]: 0.37 nM
Kd [4]: 1.37 nM
B16: S-29 (antibody, V domains shown)
VH: B15 VH
VL: not shown
notes: IgG

MFI [1]: 7120
MFI [2]: 7930
Kd [3]: 3.51 nM
Kd [4]: 10.6 nM
B17: S-78 (antibody, V domains shown)
VH: QLQLQESGPGLVKPSETLSLTCTVSGGSISSSDYYWGWIRQPPGKGLEWIGSIYYSGSTYYNPSLKSRVTISVDTSKNQFSLKLSSVTAADTAVYYCARSLAMSGAYFDLWGRGTLVTVSS
VL: not shown
notes: IgG

MFI [1]: 8070
MFI [2]: 7670
Kd [3]: 3.33 nM
Kd [4]: 19.7 nM
B18: S-73 (antibody, V domains shown)
VH: QVQLQESGPGLVKPSQTLSLTCTVSGGSISSGTYYWSWIRQHPGKGLEWIGYIYYSGSTYYNPSLKSRVTISVDTSKNQFSLKLSSVTAADTAVYYCARGVGRYRVADYWGQGTLVTVSS
VL: EIVLTQSPATLSLSPGERATLSCRASQSVSSYLAWYQQKPGQAPRLLIYDASNRATGIPARFSGSGSGTDFTLTISSLEPEDFAVYYCQQASVYPPITFGGGTKVEIK
notes: IgG

MFI [1]: 9350
MFI [2]: 21700
Kd [3]: 0.475 nM
Kd [4]: 2.3 nM
B19: S-18 (antibody, V domains shown)
VH: QVQLVQSGAEVKKPGSSVKVSCKASGGTFSSYAISWVRQAPGQGLEWMGSIIPIFGTANYAQKFQGRVTITADESTSTAYMELSSLRSEDTAVYYCARDKHGRRGYYYYMDVWGKGTTVTVSS
VL: B18 VL with A91G, S92A, V93N, Y94A, I97R
notes: IgG

MFI [1]: 12200
MFI [2]: 21900
Kd [3]: 4.12 nM
Kd [4]: 1.21 nM
B20: S-51 (antibody, V domains shown)
VH: QVQLVESGGGVVQPGRSLRLSCAASGFTFSSYGMHWVRQAPGKGLEWVAVISYDGSNKYYADSVKGRFTISRDNSKNTLYLQMNSLRAEDTAVYYCAKGLEYYDSSRLYYPYYYYMDVWGKGTTVTVSS
VL: EIVLTQSPATLSLSPGERATLSCRASQSVSSYLAWYQQKPGQAPRLLIYDASKRATGIPARFSGSGSGTDFTLTISSLEPEDFAVYYCQQRSNYPITFGGGTKVEIK
notes: IgG

binding result [5]: no binding (tested: 0.39-50 nM antibody)
B21: S-82-3 (antibody, V domains shown)
VH: QLQLQESGPGLVKPSETLSLTCTVSGGSISSSDYYWGWIRQPPGKGLEWIGQIYYKGSTYYNPSLKSRVTISVDTSKNQFSLKLSSVTAADTAVYYCARGVGSGYSYGYRYFDYWGQGTLVTVSS
VL: EIVLTQSPGTLSLSPGERATLSCRASQSVSSSYLAWYQQKPGQAPRLLIYGASSRATGIPDRFSGSGSGTDFTLTISRLEPEDFAVYYCQQSHVSPWTFGGGTKVEIK
notes: IgG
